Source: patent US11512128B2, “VEGF/DLL4 binding agents and uses thereof” (MEREO BIOPHARMA 5, INC., priority 2011, dated 2022)

T1: human VEGF165 (Homo sapiens, UniProt P15692)
T1 sequence (P15692 27-191 isoform P15692-4): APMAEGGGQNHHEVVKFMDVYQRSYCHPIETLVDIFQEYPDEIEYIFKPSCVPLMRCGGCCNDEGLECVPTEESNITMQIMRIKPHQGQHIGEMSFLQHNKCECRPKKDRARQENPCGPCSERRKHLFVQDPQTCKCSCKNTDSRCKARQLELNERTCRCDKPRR


Columns and labels:
human VEGF165 = target: T1, human VEGF165; assay: Biacore binding affinity (KD) to human VEGF; conditions: Biacore 2000, biotinylated human VEGF165 on streptavidin chip; read-out: KD hVEGF
Protocol: (§1) The KDs of parental antibodies anti-VEGF 219R45 (IgG format), anti-DLL4 21R79 (IgG format), anti-DLL4 21M18 (IgG format) and bispecific antibodies 219R45-MB-21M18 and 219R45-MB-21R79 were determined using a Biacore 2000 system from Biacore LifeSciences (GE Healthcare). Recombinant human DLL4-Fc or mouse DLL4-Fc proteins were immobilized on CM5 carboxyl chips using standard amine-based chemistry (NHS/EDC) and blocked with ethanolamine. Recombinant human VEGF165 or mouse VEGF165 were biotinylated and immobilized on streptavidin chips. The antibodies were serially diluted 2-fold from 100 nM to 0.78 nM in HBS-P (0.01M HEPES pH7.4, 0.15M NaCl, 0.005% v/v Polysorbate 20). For each antibody, all 8 dilutions were sequentially injected over a specific chip. Kinetic data were collected over time and were fit using the simultaneous global fit equation to yield affinity constants (KD values) for each bispecific antibody.

xenograft tumor models = conditions: Hoey et al., 2009; U.S. Pat. No. 7,750,124; cited from earlier work
human DLL4-Fc = human DLL4-Fc (Homo sapiens, UniProt Q9NR61); assay: Biacore binding affinity (KD) to human DLL4; conditions: ratio of KD values
Protocol: as §1
Several additional anti-DLL4 antibodies were identified that had binding affinities intermediate to the KDs of 21M18 and 21R79. Two of these anti-DLL4 antibodies were used to produce anti-VEGF/anti-DLL4 bispecific antibodies 219R45-MB-21R75 and 219R45-MB-21R83. Using the Biacore 2000 system as described above, the KDs of the bispecific antibodies 219R45-MB-21R75 and 219R45-MB-21R83 to human DLL4 were determined.

VEGF and DLL4 = VEGF and DLL4 (Homo sapiens, UniProt P15692+Q9NR61); assay: HTRF assay for simultaneous binding to human VEGF and human DLL4; conditions: d2-labeled hDLL4-Fc and Europium cryptate-labeled hVEGF165
Description: FIG. 2. HTRF assay for simultaneous binding of bispecific antibodies to human VEGF and human DLL4. Results are reported in Relative Fluorescence Units (RFU), which represent the ratio of the relative fluorescence intensity at 665 nm to the relative fluorescence intensity at 620 nm. 219R45-MB-21M18 (-●-); 219R45-MB-21R79 (-▪-); 219R45 plus 21M18 (-▴-); 219R45 plus 21R79 (-□-); 219R45 (-▾-); 21M18 (-⋄-); 21R79 (-∘-); control antibody LZ-1 (-Δ-).
To characterize the binding capabilities of certain antibodies and/or antibody mixtures to both VEGF and DLL4, homogeneous time resolved fluorescence (HTRF) assays were performed. Antibodies tested were anti-VEGF/anti-DLL4 bispecific antibodies 219R45-MB-21M18 and 219R45-MB-21R79, parental antibodies 219R45 (anti-VEGF), 21M18 (anti-DLL4), 21R79 (anti-DLL4), a combination of 219R45 and 21M18, or a combination of 219R45 and 21R79. The antibodies or antibody mixtures were serially diluted 2-fold from 3000 nM to 2.9 nM in binding buffer (1× PBS, 0.1% gelatin, 0.1% Polysorbate 20, 400 mM potassium fluoride) and placed in a white 96-well plate. […] The assay plates were incubated for 2 hours to overnight and read on a SpectraMax M5e Microplate reader (Molecular Devices, Sunnyvale, Calif.) at an excitation wavelength of 314 nm.

[1] = Non-GLP toxicity study in cynomolgus monkeys; format: in vivo; conditions: after 15 weeks
Protocol: A non-GLP toxicity study in cynomolgus monkeys was initiated to evaluate and compare the toxicity profile of some of the bispecific antibodies. The animals were dosed with 0 mg/kg (control), 5 mg/kg (low dose), or 30 mg/kg (high dose) of anti-DLL4/anti-VEGF bispecific antibody (219R45-MB-21M18, 219R45-MB-21R83, or 219R45-MB-21R79) every 2 weeks via IV infusion. 3 males and 3 females were dosed in each group. After 15 weeks, mean body weights were lower in animals receiving the high dose of 219R45-MB-21R79 than in animals that received the high dose of either […] or 219R45-MB-21R83. In addition, mean serum albumin levels were lower in animals that received 219R45-MB-21R79 than in those that received either […] or 219R45-MB-21R83.

Chain of human DLL4-Fc (Q9NR61 27-522 limits assumed): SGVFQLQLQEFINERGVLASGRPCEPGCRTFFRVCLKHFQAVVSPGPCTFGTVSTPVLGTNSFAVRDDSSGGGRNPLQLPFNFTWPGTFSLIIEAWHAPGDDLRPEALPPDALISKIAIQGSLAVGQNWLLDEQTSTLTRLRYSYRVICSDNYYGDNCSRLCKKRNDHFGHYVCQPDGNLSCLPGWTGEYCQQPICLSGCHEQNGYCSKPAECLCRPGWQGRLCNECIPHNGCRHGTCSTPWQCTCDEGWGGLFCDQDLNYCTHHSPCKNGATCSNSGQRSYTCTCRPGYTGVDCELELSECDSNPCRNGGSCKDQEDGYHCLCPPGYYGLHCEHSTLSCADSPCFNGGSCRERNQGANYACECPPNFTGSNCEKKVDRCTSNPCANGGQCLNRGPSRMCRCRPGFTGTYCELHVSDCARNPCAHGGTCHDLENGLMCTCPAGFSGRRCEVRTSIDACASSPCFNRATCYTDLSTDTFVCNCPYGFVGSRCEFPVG

Row | Molecule | Kd (human VEGF165) [nM] | frequency of cancer stem cells in xenograft tumor models (xenograft tumor models) | tumor growth in xenograft tumor models (xenograft tumor models) | stronger binding to human DLL4 than 219R45-MB-21M18 (human DLL4-Fc) | simultaneous binding to hVEGF and hDLL4 (VEGF and DLL4) | mean serum albumin levels ([1]; every 2 weeks IV infusion) | mean body weights ([1]; high dose 30 mg/kg every 2 weeks IV infusion)
1 | 21M18: anti-DLL4 antibody, parental antibody (Hoey et al., 2009; U.S. Pat. No. 7,750,124) (antibody, V domains shown) VH: QVQLVQSGAEVKKPGASVKISCKASGYSFTAYYIHWVKQAPGQGLEWIGYISSYNGATNYNQKFKGRVTFTTDTSTSTAYMELRSLRSDDTAVYYCARDYDYDVGMDYWGQGTLVTVSS VL: DIVMTQSPDSLAVSLGERATISCRASESVDNYGISFMKWFQQKPGQPPKLLIYAASNQGSGVPDRFSGSGSGTDFTLTISSLQAEDVAVYYCQQSKEVPWTFGGGTKVEIK | > 100 | reduce the frequency of cancer stem cells | inhibit tumor growth | – | – | – | –
2 | 219R45-MB-21R79: anti-VEGF/anti-DLL4 monovalent/bispecific antibody, heavy chains SEQ ID NO:7 and 6, light chains SEQ ID NO:8 (antibody, 21R79 Heavy chain without predicted signal sequence; Light chain without predicted signal sequence) heavy 1: QVQLVQSGAEVKKPGASVKVSCKASGYTFTNYWMHWVRQAPGQGLEWMGDINPSNGRTSYKEKFKRRVTLSVDKSSSTAYMELSSLRSEDTAVYFCTIHYDDKYYPLMDYWGQGTLVTVSSASTKGPSVFPLAPCSRSTSESTAALGCLVKDYFPEPVTVSWNSGALTSGVHTFPAVLQSSGLYSLSSVVTVPSSNFGTQTYTCNVDHKPSNTKVDKTVERKCCVECPPCPAPPVAGPSVFLFPPKPKDTLMISRTPEVTCVVVDVSHEDPEVQFNWYVDGVEVHNAKTKPREEQFNSTFRVVSVLTVVHQDWLNGKEYKCKVSNKGLPAPIEKTISKTKGQPREPQVYTLPPSREKMTKNQVSLTCLVKGFYPSDIAVEWESNGQPENNYKTTPPMLKSDGSFFLYSKLTVDKSRWQQGNVFSCSVMHEALHNHYTQKSLSLSPGK heavy 2: QVQLVQSGAEVKKPGASVKISCKASGYSFTAYYIHWVKQAPGQGLEWIGYIANYNRATNYNQKFKGRVTFTTDTSTSTAYMELRSLRSDDTAVYYCARDYDYDVGMDYWGQGTLVTVSSASTKGPSVFPLAPCSRSTSESTAALGCLVKDYFPEPVTVSWNSGALTSGVHTFPAVLQSSGLYSLSSVVTVPSSNFGTQTYTCNVDHKPSNTKVDKTVERKCCVECPPCPAPPVAGPSVFLFPPKPKDTLMISRTPEVTCVVVDVSHEDPEVQFNWYVDGVEVHNAKTKPREEQFNSTFRVVSVLTVVHQDWLNGKEYKCKVSNKGLPAPIEKTISKTKGQPREPQVYTLPPSREEMTKNQVSLTCLVEGFYPSDIAVEWESNGQPENNYKTTPPMLDSDGSFFLYSELTVDKSRWQQGNVFSCSVMHEALHNHYTQKSLSLSPGK light: DIVMTQSPDSLAVSLGERATISCRASESVDNYGISFMKWFQQKPGQPPKLLIYAASNQGSGVPDRFSGSGSGTDFTLTISSLQAEDVAVYYCQQSKEVPWTFGGGTKVEIKRTVAAPSVIFPPSDEQLKSGTASVVCLLNNFYPREAKVQWKVDNALQSGNSQESVTEQDSKDSTYSLSSTLTLSKADYEKHKVYACEVTHQGLSSPVTKSFNRGEC | – | – | – | approximately 30 fold | able to bind both hVEGF and hDLL4 simultaneously | lower | lower
3 | 219R45-MB-21M18: anti-VEGF/anti-DLL4 monovalent/bispecific antibody, heavy chains SEQ ID NO:7 and 5, light chains SEQ ID NO:8 (antibody, 21R79 Heavy chain without predicted signal sequence; 21M18 Heavy chain without predicted signal sequence; Light chain without predicted signal sequence) heavy 1: QVQLVQSGAEVKKPGASVKVSCKASGYTFTNYWMHWVRQAPGQGLEWMGDINPSNGRTSYKEKFKRRVTLSVDKSSSTAYMELSSLRSEDTAVYFCTIHYDDKYYPLMDYWGQGTLVTVSSASTKGPSVFPLAPCSRSTSESTAALGCLVKDYFPEPVTVSWNSGALTSGVHTFPAVLQSSGLYSLSSVVTVPSSNFGTQTYTCNVDHKPSNTKVDKTVERKCCVECPPCPAPPVAGPSVFLFPPKPKDTLMISRTPEVTCVVVDVSHEDPEVQFNWYVDGVEVHNAKTKPREEQFNSTFRVVSVLTVVHQDWLNGKEYKCKVSNKGLPAPIEKTISKTKGQPREPQVYTLPPSREKMTKNQVSLTCLVKGFYPSDIAVEWESNGQPENNYKTTPPMLKSDGSFFLYSKLTVDKSRWQQGNVFSCSVMHEALHNHYTQKSLSLSPGK heavy 2: QVQLVQSGAEVKKPGASVKISCKASGYSFTAYYIHWVKQAPGQGLEWIGYISSYNGATNYNQKFKGRVTFTTDTSTSTAYMELRSLRSDDTAVYYCARDYDYDVGMDYWGQGTLVTVSSASTKGPSVFPLAPCSRSTSESTAALGCLVKDYFPEPVTVSWNSGALTSGVHTFPAVLQSSGLYSLSSVVTVPSSNFGTQTYTCNVDHKPSNTKVDKTVERKCCVECPPCPAPPVAGPSVFLFPPKPKDTLMISRTPEVTCVVVDVSHEDPEVQFNWYVDGVEVHNAKTKPREEQFNSTFRVVSVLTVVHQDWLNGKEYKCKVSNKGLPAPIEKTISKTKGQPREPQVYTLPPSREEMTKNQVSLTCLVEGFYPSDIAVEWESNGQPENNYKTTPPMLDSDGSFFLYSELTVDKSRWQQGNVFSCSVMHEALHNHYTQKSLSLSPGK light: DIVMTQSPDSLAVSLGERATISCRASESVDNYGISFMKWFQQKPGQPPKLLIYAASNQGSGVPDRFSGSGSGTDFTLTISSLQAEDVAVYYCQQSKEVPWTFGGGTKVEIKRTVAAPSVIFPPSDEQLKSGTASVVCLLNNFYPREAKVQWKVDNALQSGNSQESVTEQDSKDSTYSLSSTLTLSKADYEKHKVYACEVTHQGLSSPVTKSFNRGEC | – | – | – | – | able to bind both hVEGF and hDLL4 simultaneously | – | –
